Test [1] has as its target T1, PD-L1 (on CHO-PD-L1 cells) (UniProt Q9NZQ7 19-290). Description: FACS binding; Fig. 22. On the technique in general: A flow cytometer gives signals particle by particle.
Test [2] deals with T1, PD-L1 (on CHO-PD-L1 cells). Nature of the test: FACS binding; Fig. 24.

T1 sequence (Q9NZQ7 19-290): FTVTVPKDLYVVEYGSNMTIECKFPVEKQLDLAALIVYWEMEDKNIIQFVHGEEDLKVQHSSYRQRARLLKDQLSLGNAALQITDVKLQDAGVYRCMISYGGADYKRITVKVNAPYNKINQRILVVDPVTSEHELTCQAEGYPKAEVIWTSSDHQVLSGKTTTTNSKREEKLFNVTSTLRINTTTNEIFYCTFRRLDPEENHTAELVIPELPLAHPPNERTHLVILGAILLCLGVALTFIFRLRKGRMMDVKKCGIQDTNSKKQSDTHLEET

B1: R1124: PD-L1_VH_IL21R/TIGIT_VL_IL21/TIGIT_VH/PD-L1-VL (bispecific antibody)
chain 1: not shown
chain 2: not shown
heavy: QVQLVQSGAEVKKPGSSVKVSCKASGYSFTSYWMNWVRQAPGQGLEWIGMIRPSDSETRLNQMFKDRVTITVDKSTSTAYMELSSLRSEDTAVYYCAGIHDYGHGAYWGQGTLVTVSSASTKGPSVFPLAPSSKSTSGGTAALGCLVKDYFPEPVTVSWNSGALTSGVHTFPAVLQSSGLYSLSSVVTVPSSSLGTQTYICNVNHKPSNTKVDKRVEPKSCDKTHTCPPCPAPELLGGPSVFLFPPKPKDTLMISRTPEVTCVVVDVSHEDPEVKFNWYVDGVEVHNAKTKPREEQYNSTYRVVSVLTVLHQDWLNGKEYKCKVSNKALPAPIEKTISKAKGQPREPQVYTLPPSREEMTKNQVSLWCLVKGFYPSDIAVEWESNGQPENNYDTTPPVLDSDGSFFLYSDLTVDKSRWQQGNVFSCSVMHEALHNHYTQKSLSLSPGK
light: EIVLTQSPDFQSVTPKEKVTITCSVSSSISSSNLHWYQQKPDQSPKLLIYGTSNLASGVPSRFSGSGSGTDFTLTINSLEAEDAATYYCQQWSSYPLTFGQGTKLEIKRTVAAPSVFIFPPSDEQLKSGTASVVCLLNNFYPREAKVQWKVDNALQSGNSQESVTEQDSKDSTYSLSSTLTLSKADYEKHKVYACEVTHQGLSSPVTKSFNRGEC
What is called EC50 is the concentration needed to bring the measured effect to its halfway point. Low values mean greater potency, high ones weaker potency. In test [1], B1 returned an EC50 of 13.7 nM.

B2: R1119: TIGIT_VH_IL18R1_D1D2/TIGIT_VL_IL18/PD-L1-Fab (bispecific antibody)
chain 1: QVQLVQSGAEVKKPGSSVKVSCKASGYSFTSYWMNWVRQAPGQGLEWIGMIRPSDSETRLNQMFKDRVTITVDKSTSTAYMELSSLRSEDTAVYYCAGIHDYGHGAYWGQGTLVTVSSGGGGSGGGGSGGGGSGGGGSGCTSRPHITVVEGEPFYLKHCSCSLAHEIETTTKSWYKSSGSQEHVELNPRSSSRIALHDCVLEFWPVELNDTGSYFFQMKNYTQKWKLNVIRRNKHSCFTERQVTSKIVEVKKFFQITCENSYYQTLVNSTSLYKNCKKLLLENNKNPTIKKNAEFEDQGYYSCVHFLHHNGKLFNITKTFNITIVEDRSNIVEPKSSDKTHTCPPCPAPELLGGPSVFLFPPKPKDTLMISRTPEVTCVVVDVSHEDPEVKFNWYVDGVEVHNAKTKPREEQYNSTYRVVSVLTVLHQDWLNGKEYKCKVSNKALPAPIEKTISKAKGQPREPQVYTLPPSREEMTKNQVSLTCRVKGFYPSDIAVEWESNGQPENNYKTTPPVLKSDGSFFLASKLTVDKSRWQQGNVFSCSVMHEALHNHYTQKSLSLSPGK
chain 2: not shown
heavy: EVQLQESGPGLVKPSETLSLTCAVYGDSITSGYWNWIRKPPGKGLEYMGYISYTGSTYQNPSLKSRITFSRDTSKNQYYLKLSSVTAADTATYYCARSRAWIRTYFDYWGQGTLVTVSSASTKGPSVFPLAPSSKSTSGGTAALGCLVKDYFPEPVTVSWNSGALTSGVHTFPAVLQSSGLYSLSSVVTVPSSSLGTQTYICNVNHKPSNTKVDKRVEPKSCDKTHTCPPCPAPELLGGPSVFLFPPKPKDTLMISRTPEVTCVVVDVSHEDPEVKFNWYVDGVEVHNAKTKPREEQYNSTYRVVSVLTVLHQDWLNGKEYKCKVSNKALPAPIEKTISKAKGQPREPQVYTLPPSREEMTKNQVSLWCLVKGFYPSDIAVEWESNGQPENNYDTTPPVLDSDGSFFLYSDLTVDKSRWQQGNVFSCSVMHEALHNHYTQKSLSLSPGK
light: EIVLTQSPDFQSVTPKEKVTITCSVSSSISSSNLHWYQQKPDQSPKLLIYGTSNLASGVPSRFSGSGSGTDFTLTINSLEAEDAATYYCQQWSSYPLTFGQGTKLEIKRTVAAPSVFIFPPSDEQLKSGTASVVCLLNNFYPREAKVQWKVDNALQSGNSQESVTEQDSKDSTYSLSSTLTLSKADYEKHKVYACEVTHQGLSSPVTKSFNRGEC
Turning to B2, in test [1], it took 2.95 nM to reach a half-maximal effect (EC50).

B3: R1081: TIGIT_VH (G44C)_IL15RA/TIGIT_VL(Q100C)_IL15/PD-L1-Fab (bispecific antibody)
chain 1: QVQLVQSGAEVKKPGSSVKVSCKASGYSFTSYWMNWVRQAPGQCLEWIGMIRPSDSETRLNQMFKDRVTITVDKSTSTAYMELSSLRSEDTAVYYCAGIHDYGHGAYWGQGTLVTVSSGGGGSGGGGSGGGGSGGGGSGITCPPPMSVEHADIWVKSYSLYSRERYICNSGFKRKAGTSSLTECVLNKATNVAHWTTPSLKCIRDPALVHQRPAPPSTVTTAGVTPQPESLSPSGKEPAASSPSSNNTAATTAAIVPGSQLMPSKSPSTGTTEISSHESSHGTPSQTTAKNWELTASASHQPPGVYPQGHSDTTEPKSSDKTHTCPPCPAPELLGGPSVFLFPPKPKDTLMISRTPEVTCVVVDVSHEDPEVKFNWYVDGVEVHNAKTKPREEQYNSTYRVVSVLTVLHQDWLNGKEYKCKVSNKALPAPIEKTISKAKGQPREPQVYTLPPSREEMTKNQVSLTCRVKGFYPSDIAVEWESNGQPENNYKTTPPVLKSDGSFFLASKLTVDKSRWQQGNVFSCSVMHEALHNHYTQKSLSLSPGK
chain 2: DIQMTQSPSSLSASVGDRVTITCRASENIYSNLAWYQQKPGKSPKLLVYAASHLPDGVPSRFSGSGSGTDYSLTISSLQPEDFATYYCQHFWGTPRTFGCGTKLEIKGGGGSGGGGSGGGGSGGGGSGNWVNVISDLKKIEDLIQSMHIDATLYTESDVHPSCKVTAMKCFLLELQVISLESGDASIHNTVQDLIILANNSLSSNGNVTESGCKECEELEEKNIKEFLQSFVHIVQMFINTS
heavy: QVQLQESGPGLVKPSETLSLTCAVYGDSITSGYWNWIRKPPGKGLEYIGYISYTGSTYQNPSLKSRITMSRDTSKNQYYLKLSSVTAADTAVYYCARSRAWIRTYFDYWGQGTLVTVSSASTKGPSVFPLAPSSKSTSGGTAALGCLVKDYFPEPVTVSWNSGALTSGVHTFPAVLQSSGLYSLSSVVTVPSSSLGTQTYICNVNHKPSNTKVDKRVEPKSCDKTHTCPPCPAPELLGGPSVFLFPPKPKDTLMISRTPEVTCVVVDVSHEDPEVKFNWYVDGVEVHNAKTKPREEQYNSTYRVVSVLTVLHQDWLNGKEYKCKVSNKALPAPIEKTISKAKGQPREPQVYTLPPSREEMTKNQVSLWCLVKGFYPSDIAVEWESNGQPENNYDTTPPVLDSDGSFFLYSDLTVDKSRWQQGNVFSCSVMHEALHNHYTQKSLSLSPGK
light: DIQMTQSPSSLSASVGDRVTITCSVSSSISSSNLHWYQQKPGKAPKPWIYGTSNLASGVPSRFSGSGSGTDYTLTISSLQPEDFATYYCQQWSSYPLTFGQGTKLEIKRTVAAPSVFIFPPSDEQLKSGTASVVCLLNNFYPREAKVQWKVDNALQSGNSQESVTEQDSKDSTYSLSSTLTLSKADYEKHKVYACEVTHQGLSSPVTKSFNRGEC
B3: it took 2.37 nM to reach a half-maximal effect in test [2] (EC50).

B4: R1083: TIGIT_VH (L45C)_IL15RA/TIGIT_VL(F98C)_IL15/PD-L1-Fab (bispecific antibody)
chain 1: QVQLVQSGAEVKKPGSSVKVSCKASGYSFTSYWMNWVRQAPGQGCEWIGMIRPSDSETRLNQMFKDRVTITVDKSTSTAYMELSSLRSEDTAVYYCAGIHDYGHGAYWGQGTLVTVSSGGGGSGGGGSGGGGSGGGGSGITCPPPMSVEHADIWVKSYSLYSRERYICNSGFKRKAGTSSLTECVLNKATNVAHWTTPSLKCIRDPALVHQRPAPPSTVTTAGVTPQPESLSPSGKEPAASSPSSNNTAATTAAIVPGSQLMPSKSPSTGTTEISSHESSHGTPSQTTAKNWELTASASHQPPGVYPQGHSDTTEPKSSDKTHTCPPCPAPELLGGPSVFLFPPKPKDTLMISRTPEVTCVVVDVSHEDPEVKFNWYVDGVEVHNAKTKPREEQYNSTYRVVSVLTVLHQDWLNGKEYKCKVSNKALPAPIEKTISKAKGQPREPQVYTLPPSREEMTKNQVSLTCRVKGFYPSDIAVEWESNGQPENNYKTTPPVLKSDGSFFLASKLTVDKSRWQQGNVFSCSVMHEALHNHYTQKSLSLSPGK
chain 2: DIQMTQSPSSLSASVGDRVTITCRASENIYSNLAWYQQKPGKSPKLLVYAASHLPDGVPSRFSGSGSGTDYSLTISSLQPEDFATYYCQHFWGTPRTCGQGTKLEIKGGGGSGGGGSGGGGSGGGGSGNWVNVISDLKKIEDLIQSMHIDATLYTESDVHPSCKVTAMKCFLLELQVISLESGDASIHNTVQDLIILANNSLSSNGNVTESGCKECEELEEKNIKEFLQSFVHIVQMFINTS
heavy: QVQLQESGPGLVKPSETLSLTCAVYGDSITSGYWNWIRKPPGKGLEYIGYISYTGSTYQNPSLKSRITMSRDTSKNQYYLKLSSVTAADTAVYYCARSRAWIRTYFDYWGQGTLVTVSSASTKGPSVFPLAPSSKSTSGGTAALGCLVKDYFPEPVTVSWNSGALTSGVHTFPAVLQSSGLYSLSSVVTVPSSSLGTQTYICNVNHKPSNTKVDKRVEPKSCDKTHTCPPCPAPELLGGPSVFLFPPKPKDTLMISRTPEVTCVVVDVSHEDPEVKFNWYVDGVEVHNAKTKPREEQYNSTYRVVSVLTVLHQDWLNGKEYKCKVSNKALPAPIEKTISKAKGQPREPQVYTLPPSREEMTKNQVSLWCLVKGFYPSDIAVEWESNGQPENNYDTTPPVLDSDGSFFLYSDLTVDKSRWQQGNVFSCSVMHEALHNHYTQKSLSLSPGK
light: DIQMTQSPSSLSASVGDRVTITCSVSSSISSSNLHWYQQKPGKAPKPWIYGTSNLASGVPSRFSGSGSGTDYTLTISSLQPEDFATYYCQQWSSYPLTFGQGTKLEIKRTVAAPSVFIFPPSDEQLKSGTASVVCLLNNFYPREAKVQWKVDNALQSGNSQESVTEQDSKDSTYSLSSTLTLSKADYEKHKVYACEVTHQGLSSPVTKSFNRGEC
In test [2], B4 displayed an EC50 of 2.29 nM.

B5: R1082: TIGIT_VH (W108C)_IL15RA/TIGIT_VL(S43C)_IL15/PD-L1-Fab (bispecific antibody)
chain 1: QVQLVQSGAEVKKPGSSVKVSCKASGYSFTSYWMNWVRQAPGQGLEWIGMIRPSDSETRLNQMFKDRVTITVDKSTSTAYMELSSLRSEDTAVYYCAGIHDYGHGAYCGQGTLVTVSSGGGGSGGGGSGGGGSGGGGSGITCPPPMSVEHADIWVKSYSLYSRERYICNSGFKRKAGTSSLTECVLNKATNVAHWTTPSLKCIRDPALVHQRPAPPSTVTTAGVTPQPESLSPSGKEPAASSPSSNNTAATTAAIVPGSQLMPSKSPSTGTTEISSHESSHGTPSQTTAKNWELTASASHQPPGVYPQGHSDTTEPKSSDKTHTCPPCPAPELLGGPSVFLFPPKPKDTLMISRTPEVTCVVVDVSHEDPEVKFNWYVDGVEVHNAKTKPREEQYNSTYRVVSVLTVLHQDWLNGKEYKCKVSNKALPAPIEKTISKAKGQPREPQVYTLPPSREEMTKNQVSLTCRVKGFYPSDIAVEWESNGQPENNYKTTPPVLKSDGSFFLASKLTVDKSRWQQGNVFSCSVMHEALHNHYTQKSLSLSPGK
chain 2: DIQMTQSPSSLSASVGDRVTITCRASENIYSNLAWYQQKPGKCPKLLVYAASHLPDGVPSRFSGSGSGTDYSLTISSLQPEDFATYYCQHFWGTPRTFGQGTKLEIKGGGGSGGGGSGGGGSGGGGSGNWVNVISDLKKIEDLIQSMHIDATLYTESDVHPSCKVTAMKCFLLELQVISLESGDASIHNTVQDLIILANNSLSSNGNVTESGCKECEELEEKNIKEFLQSFVHIVQMFINTS
heavy: QVQLQESGPGLVKPSETLSLTCAVYGDSITSGYWNWIRKPPGKGLEYIGYISYTGSTYQNPSLKSRITMSRDTSKNQYYLKLSSVTAADTAVYYCARSRAWIRTYFDYWGQGTLVTVSSASTKGPSVFPLAPSSKSTSGGTAALGCLVKDYFPEPVTVSWNSGALTSGVHTFPAVLQSSGLYSLSSVVTVPSSSLGTQTYICNVNHKPSNTKVDKRVEPKSCDKTHTCPPCPAPELLGGPSVFLFPPKPKDTLMISRTPEVTCVVVDVSHEDPEVKFNWYVDGVEVHNAKTKPREEQYNSTYRVVSVLTVLHQDWLNGKEYKCKVSNKALPAPIEKTISKAKGQPREPQVYTLPPSREEMTKNQVSLWCLVKGFYPSDIAVEWESNGQPENNYDTTPPVLDSDGSFFLYSDLTVDKSRWQQGNVFSCSVMHEALHNHYTQKSLSLSPGK
light: DIQMTQSPSSLSASVGDRVTITCSVSSSISSSNLHWYQQKPGKAPKPWIYGTSNLASGVPSRFSGSGSGTDYTLTISSLQPEDFATYYCQQWSSYPLTFGQGTKLEIKRTVAAPSVFIFPPSDEQLKSGTASVVCLLNNFYPREAKVQWKVDNALQSGNSQESVTEQDSKDSTYSLSSTLTLSKADYEKHKVYACEVTHQGLSSPVTKSFNRGEC
In test [2], B5 gave an EC50 of 2.78 nM.

(Values after patent publication US20250277023A1 (published 2025).)
